Laboratory results published in patent publication US20240141072A1 (published 2024).

B1: 2G09 anti-DLL3 trispecific protein (other)
chain: EVQLVESGGGLVQPGGSLTLSCVASGSTSSINAMGWYRRAPGKQRELVAGVSSDGSKVYADSVKGRFTISRDNAKNSVYLQMNSLRAEDTAVYYCYYFRTVSGSSARYWGQGTLVTVSS
notes: not shown: linker 1808, anti-albumin sdAb, linker 1808, anti-CD3 fragment, His6 1819
B2: 2H03 anti-DLL3 trispecific protein (other)
chain: EVQLVESGGGLVQPGGSLTLSCVASGSTSSINAMAWYRRAPGKQRELVAGISSDGSKVYADSVKGRFTISRDNAKNSVYLQMNSLRAEDTAVYYCYYFRQVSGSSMRYWGQGTLVTVSS
notes: as for B1
B3: 2H06 anti-DLL3 trispecific protein (other)
chain: EVQLVESGGGLVQPGGSLTLSCVASGSTSTINAMGWYRRAPGKQRELVAGISSDGSKVYADSVKGRFTISRDNAKNSVYLQMNSLRAEDTAVYYCYYFRTASGSSMRYWGQGTLVTVSS
notes: as for B1
B4: 2H07 anti-DLL3 trispecific protein (other)
chain: EVQLVESGGGLVQPGGSLTLSCVASGSTSSINAVGWYRRAPGKQRELVAGISSDGSTVYADSVKGRFTISRDNAKNSVYLQMNSLRAEDTAVYYCYYFRTVSGHSMRYWGQGTLVTVSS
notes: as for B1
B5: 2H04 anti-DLL3 trispecific protein (other)
chain: EVQLVESGGGLVQPGGSLTLSCVASGSTSSINAMGWYRRAPGKQRELVAGISSDTSKVYADSVKGRFTISRDNAKNSVYLQMNSLRAEDTAVYYCYYFRTVSGSYMRYWGQGTLVTVSS
notes: as for B1
B6: 2H011 anti-DLL3 trispecific protein (other)
chain: EVQLVESGGGLVQPGGSLTLSCVASGSTSRINAMGWYRRAPGKQRELVAGISSDGSKVYADSVKGRFTISRDNAKNSVYLQMNSLRAEDTAVYYCYYFRRVSGSSMRYWGQGTLVTVSS
notes: as for B1
B7: 2H010 anti-DLL3 trispecific protein (other)
chain: EVQLVESGGGLVQPGGSLTLSCVASGSTSSINAMGWYRRAPGKQRELAAGISSDGSKLYADSVKGRFTISRDNAKNSVYLQMNSLRAEDTAVYYCYYFRTVSGSSMRYWGQGTLVTVSS
notes: as for B1
B8: 2G011 anti-DLL3 trispecific protein (other)
chain: EVQLVESGGGLVQPGGSLTLSCVASGSTSSINAMGWYRRAPGKQRELPAGISRDGSKVYADSVKGRFTISRDNAKNSVYLQMNSLRAEDTAVYYCYYFRYVSGSSMRYWGQGTLVTVSS
notes: as for B1
B9: 2H08 anti-DLL3 trispecific protein (other)
chain: EVQLVESGGGLVQPGGSLTLSCVASGSTSSINAMGWYRRAPGKQRELAAGISKDGSKVYADSAKGRFTISRDNAKNSVYLQMNSLRAEDTAVYYCYYFRTVSGSSSRYWGQGTLVTVSS
notes: as for B1
B10: 3F03 anti-DLL3 trispecific protein (other)
chain: EVQLVESGGGLVQPGGSLTLSCAASGSSVSFLSMAWYRQAPGKKRELVAGISADGSTDYIDSVKGRFTISRDNAKNSVYLQMNSLRAEDTAVYYCYAYRWRTRYTYWGQGTLVTVSS
notes: as for B1
B11: 3A05 anti-DLL3 trispecific protein (other)
chain: EVQLVESGGGLVQPGGSLTLSCAASGSSVSFLSMAWYRQAPGKKRELVAGISEAGSTDYIDSVKGRFTISRDNAKNSVYLQMNSLRAEDTAVYYCYAYRWRTRYTYWGQGTLVTVSS
notes: as for B1
B12: 3A04 anti-DLL3 trispecific protein (other)
chain: EVQLVESGGGLVQPGGSLTLSCAASGSQVSFLSMAWYRQAPGKKRELVAGISRDGSTDYIDSVKGRFTISRDNAKNSVYLQMNSLRAEDTAVYYCYAYRWTTRYIYWGQGTLVTVSS
notes: as for B1
B13: 3A01 anti-DLL3 trispecific protein (other)
chain: EVQLVESGGGLVQPGGSLTLSCAASGSSVKFLSMAWYRQAPGKKRELVAGISADGSTDYIDSVKGRFTISRDNAKNSVYLQMNSLRAEDTAVYYCYAYRWTRRYTYWGQGTLVTVSS
notes: as for B1
B14: 3A03 anti-DLL3 trispecific protein (other)
chain: EVQLVESGGGLVQPGGSLTLSCAASGSRVSFLSMAWYRQAPGKKRELVAGISRDGSTDYIDSVKGRFTISRDNAKNSVYLQMNSLRAEDTAVYYCYAYRWTTRRTYWGQGTLVTVSS
notes: as for B1

Target: T1, biotinylated human DLL3 protein expressed as a human IgG1 fusion protein (human, UniProt Q9NYJ7 27-492, limits assumed, biotinylated)
T1 sequence: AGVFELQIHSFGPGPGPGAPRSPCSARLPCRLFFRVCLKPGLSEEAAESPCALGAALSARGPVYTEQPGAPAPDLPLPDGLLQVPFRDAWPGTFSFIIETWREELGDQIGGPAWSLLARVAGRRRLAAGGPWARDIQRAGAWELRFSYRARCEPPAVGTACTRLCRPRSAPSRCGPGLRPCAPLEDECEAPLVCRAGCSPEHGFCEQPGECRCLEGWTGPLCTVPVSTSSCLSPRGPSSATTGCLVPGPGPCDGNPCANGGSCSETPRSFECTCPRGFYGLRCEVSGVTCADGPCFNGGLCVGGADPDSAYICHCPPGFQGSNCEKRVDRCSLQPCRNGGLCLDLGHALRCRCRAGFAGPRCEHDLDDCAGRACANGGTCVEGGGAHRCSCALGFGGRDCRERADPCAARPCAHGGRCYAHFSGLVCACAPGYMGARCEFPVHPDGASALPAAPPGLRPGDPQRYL
Assay: Octet BLI, single 50 nM
Summary of the method: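 Anti-DLL3 trispecific proteins were tested directly from conditioned medium in which their concentrations were known. The tip-captured DLL3 fusion served as the immobilised partner, and binding affinity toward human DLL3 was determined from the Octet measurement.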

Point of comparison: B6, Kd 5 nM. Against it:
- B1 — 1.6-fold higher, 8 nM
- B2 — within 1.5-fold, 5.3 nM
- B3 — 1.6-fold higher, 7.9 nM
- B4 — within 1.5-fold, 6.1 nM
- B5 — within 1.5-fold, 6.3 nM
- B7 — within 1.5-fold, 6.4 nM
- B8 — 2.6-fold higher, 13 nM
- B9 — 3.6-fold higher, 18 nM
- B10 — 2.6-fold higher, 13 nM
- B11 — 3-fold higher, 15 nM
- B12 — 1.8-fold higher, 9.2 nM
- B13 — 3.2-fold higher, 16 nM
- B14 — 2.4-fold higher, 12 nM
